The record followed here is patent publication US20160193316A1 (priority 1994, published 2016).

One assay has as its target T1, DRB1*0401 (DR4w4) (Homo sapiens, UniProt P01903+P01911, A100K/A169T/F76Y/I96L/K127E/L162R/M171V/N62H/P40V/Q125Y/R42H/S133A/S149N/S66Y/V115G/V209L/W38E).
T1 construct: endogenous in cells; host or cells: Preiss
Kind of assay: HLA class II peptide binding assay. The conditions noted are these: for DR4w4 binding data: Table XIXb.

In another assay the target is T2, DRB1*0301 (DR3) (Homo sapiens, UniProt P01903+P01911, A100K/A102G/A103R/A169T/F55Y/I96L/K41T/L162R/M171V/P40S/Q125H/Q178H/Q39Y/R42S/S66N/T106N/T262R/W38E/Y61H).
T2 construct: endogenous in cells; host or cells: MAT
Briefly: HLA class II peptide binding assay (pH 4.5). Conditions: for DR3 binding data: Table XIXb; for DR3 binding information: Malaria DR3b motif peptides, unit not given.

Another assay has as its target T3, DRB1*0701 (DR7) (Homo sapiens, UniProt P01903+P01911, A100R/A102G/A103Q/D57E/D86V/E43K/F76Y/K127E/L162R/M171V/P40G/Q125H/Q99D/R33Q/R42Y/R54Q/S133A/S66F/T210M/V115G/Y107V/Y59L/Y89S).
T3 construct: endogenous in cells; host or cells: Pitout
Briefly: biochemical. The class given is binding.

A further assay deals with T4, DRB1*0101 (DR1) (Homo sapiens, UniProt P01903+P01911, A100R/D57E/F55L/F60I/F76Y/I96L/L162R/M171V/P40L/Q125E/R42F/V115G/Y59C).
T4 construct: endogenous in cells; host or cells: LG2
Kind of assay: HLA class II peptide binding assay. The conditions noted are these: for DR1 binding data: Table XIXb, Malaria Super Motif Peptides With Binding Data.

In a further assay the target is T5, DRB1*0405 (DR4w15) (Homo sapiens, UniProt P01903+P01911, A100R/A169T/D86S/F76Y/I96L/K127E/L162R/M171V/N62H/P40V/Q125Y/R42H/S133A/S149N/S66Y/V115G/V209L/W38E).
T5 construct: endogenous in cells; host or cells: KT3
Briefly: HLA class II peptide binding assay. The conditions noted are these: for DR4w15 binding data: Table XIXb.

Another assay addresses T6, DRB1*1201 (DR5w12) (Homo sapiens, UniProt P01903+P01911, A100R/A169T/D57E/D86V/F55L/H45Y/K41T/L162R/M171V/P40S/Q125H/Q178H/Q39Y/Q99D/R42G/S66L/T262R/V114A/V67L/W38E/Y59H/Y61H/Y89S).
T6 construct: endogenous in cells; host or cells: Herluf
Briefly: HLA class II peptide binding assay. The conditions noted are these: for DR5w12 binding data: Table XIXb.

A further assay addresses T7, DRB1*0802 (DR8w2) (Homo sapiens, UniProt P01903+P01911, A100R/A103L/A169T/F76Y/H45Y/I96F/K41T/L162R/M171V/P40S/Q125H/Q178H/Q39Y/Q99D/R218S/R42G/S66Y/V115G/W38E).
T7 construct: endogenous in cells; host or cells: OLL
Kind of assay: biochemical. The class given is binding.

The next assay deals with T8, DRB1*1101 (DR5w11) (Homo sapiens, UniProt P01903+P01911, A100R/A169T/A87E/I96F/K41T/L162R/M171V/P40S/Q125H/Q178H/Q39Y/Q99D/R42S/S66Y/T262R/V115G/W38E).
T8 construct: endogenous in cells; host or cells: Sweig
Kind of assay: biochemical. The class given is binding.

The next assay deals with T9, DRB5*0101 (DR2w2β2) (Homo sapiens, UniProt P01903+Q30154).
T9 construct: expressed in transfected cells; host or cells: L416.3 (fibroblasts) or GM3107
The class given is binding.

The next assay concerns the target HLA-A*1101 (Homo sapiens, UniProt P04439, A114D/D185E/E176A/F33Y/L180Q/S129P/T187R). Kind of assay: HLA class I peptide binding assay. Conditions: Table XVII.
For a further assay, the target named is T10, HLA-A*0301 (Homo sapiens, UniProt P04439).
T10 construct: endogenous in cells; host or cells: GM3107
Kind of assay: HLA class I peptide binding assay. Conditions: for A*0301 (binding information): Malaria A3 motif peptides, Table XVI.

The target in the next assay is T11, DRB4*0101 (DRw53) (Homo sapiens, UniProt P01903+P13762, G164S).
T11 construct: expressed in transfected cells; host or cells: L257.6 (fibroblasts)
Kind of assay: HLA class II peptide binding assay (pH 5.0). Conditions: Table XIXb; DRw53.

Where [1] appears, read: Malaria A11 motif peptides, HLA-A*1101 binding value, unit not given.
[2] abbreviates: Malaria A11 motif peptides, binding value for HLA-A*1101, unit not given.
Setting [3] is: malaria A11 motif peptides, binding value unit not given.
Setting [4] is: Malaria DR3b motif peptides, unit not given.

T4 sequence (P01903 26-254 partner, other chains not shown): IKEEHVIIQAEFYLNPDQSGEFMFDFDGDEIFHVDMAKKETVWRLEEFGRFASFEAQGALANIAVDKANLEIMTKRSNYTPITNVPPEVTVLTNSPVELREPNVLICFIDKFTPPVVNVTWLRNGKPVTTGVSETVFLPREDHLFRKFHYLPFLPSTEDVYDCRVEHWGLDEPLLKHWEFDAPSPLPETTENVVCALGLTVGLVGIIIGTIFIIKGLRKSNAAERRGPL
T8 sequence (P01903 26-254, other chains not shown): as the sequence (P01903 26-254 partner, other chains not shown) above
T1 sequence (P01903 26-254 partner, other chains not shown): as above

The substance LHEGCTSEL registered a DR4w4 binding data with DRB1*0401 (DR4w4) of -0.0009. The substance further registered a DR3 binding data with DRB1*0301 (DR3) of -0.0041. In the assay with DRB1*0701 (DR7), this substance showed a DR7 binding data of -0.0003. In the assay with DRB1*0101 (DR1), this substance yielded a DR1 binding data of 0.0001. In addition, the DR4w15 binding data with DRB1*0405 (DR4w15) was -0.0014. Besides, the DR5w12 binding data with DRB1*1201 (DR5w12) is 0.0001. Moreover, the DR8w2 binding data with DRB1*0802 (DR8w2) is -0.0003. This substance also returned a DR5w11 binding data with DRB1*1101 (DR5w11) of -0.0002. This substance had a DR2w2β2 binding data with DRB5*0101 (DR2w2β2) of -0.0005.

As to FVEALFQEY, the “A*1101 binding information” value at HLA-A*1101 (setting [1]) is listed as 0.0003.

With EDMCYFMK, in the assay with HLA-A*1101 (setting [2]), the “A*1101 binding information” value is listed as 0.0003.

Substance FQEYQCYGS displayed a DR4w4 binding data with DRB1*0401 (DR4w4) of 0.0053. The same substance yielded a DR7 binding data with DRB1*0701 (DR7) of -0.0003. Besides, in the assay with DRB1*0101 (DR1), the DR1 binding data stood at 0.0001. Also, in the assay with DRB1*0405 (DR4w15), the DR4w15 binding data is on record as -0.0009. In the assay with DRB1*1201 (DR5w12), the DR5w12 binding data is listed as 0.0001. The same substance displayed a DR8w2 binding data in the assay with DRB1*0802 (DR8w2) of 0.0005. This substance returned a DR5w11 binding data with DRB1*1101 (DR5w11) of -0.0002. The substance further displayed a DR2w2β2 binding data in the assay with DRB5*0101 (DR2w2β2) of -0.0005.

Regarding QCEEERCPPK, the “A*1101 binding information” value in the assay with HLA-A*1101 (setting [3]) was 0.0002. The “A*0301 (binding information)” value with HLA-A*0301 (binding value to HLA-A*0301, unit not given) is given as 0.0004.

In turn, LNKEGKLIE had a DR4w4 binding information with DRB1*0401 (DR4w4) (setting [4]) of -0.0017. The substance further showed a DR3 binding information in the assay with DRB1*0301 (DR3) of -0.0140. This substance also showed a DR7 binding information with DRB1*0701 (DR7) of -0.0009. This substance also returned a DR1 binding information with DRB1*0101 (DR1) (setting [4]) of 0.0001. The substance further registered a DR4w15 binding information in the assay with DRB1*0405 (DR4w15) (setting [4]) of -0.0047. For the same substance, the DR5w12 binding information in the assay with DRB1*1201 (DR5w12) (setting [4]) is given as -0.0003. Further, the DR8w2 binding information with DRB1*0802 (DR8w2) is -0.0007. In the assay with DRB1*1101 (DR5w11), this substance yielded a DR5w11 binding information of -0.0005. In the assay with DRB5*0101 (DR2w2β2), this substance gave a DR2w2β2 binding information of -0.0021.

Turning to LGGVGLVLY, the “A*1101 binding information” value in the assay with HLA-A*1101 (setting [1]) is reported as 0.0002. The same substance displayed a DR4w4 binding data with DRB1*0401 (DR4w4) of 0.0032. In the assay with DRB1*0701 (DR7), this substance had a DR7 binding data of 0.0007. For the same substance, the DR1 binding data with DRB1*0101 (DR1) was found to be 0.4900. Further, the DR4w15 binding data in the assay with DRB1*0405 (DR4w15) is given as -0.0009. The DR5w12 binding data with DRB1*1201 (DR5w12) was 0.0004. The DR8w2 binding data with DRB1*0802 (DR8w2) is given as -0.0002. The same substance had a DR5w11 binding data with DRB1*1101 (DR5w11) of -0.0062. For the same substance, the “A*0301 (binding information)” value with HLA-A*0301 (binding value for HLA-A*0301, unit not given) was found to be 0.0001. Besides, the DR2w2β2 binding data with DRB5*0101 (DR2w2β2) is -0.005.

Regarding SVTCGKOTFt (SVTCGKGTR), in the assay with HLA-A*1101 (setting [3]), the “A*1101 binding information” value was found to be 0.0009.

LEEKAAKET gave a DR4w4 binding data with DRB1*0401 (DR4w4) of -0.0009. In the assay with DRB1*0701 (DR7), the DR7 binding data is -0.0003. In the assay with DRB1*0101 (DR1), this substance returned a DR1 binding data of 0.0001. This substance displayed a DR4w15 binding data in the assay with DRB1*0405 (DR4w15) of -0.0009. Also, in the assay with DRB1*1201 (DR5w12), the DR5w12 binding data was determined as 0.0001. In the assay with DRB1*0802 (DR8w2), the DR8w2 binding data is -0.0002. Besides, in the assay with DRB1*1101 (DR5w11), the DR5w11 binding data is on record as -0.0002. The same substance came in with a DR2w2β2 binding data with DRB5*0101 (DR2w2β2) of -0.0005.

Turning to FLKENKLNK, at HLA-A*1101 (setting [2]), the “A*1101 binding information” value was 0.0005. Also, on DRB1*0301 (DR3), the DR3 binding information was 0.0950. Besides, the “A*301 (binding data)” value on HLA-A*0301 (Malaria A03 supermotif peptides, binding value, no unit given) was determined as 0.0260. Moreover, on HLA-A*0301 (HLA-A*0301 binding value, unit not given), the “A*0301 (binding information)” value is 0.0260.

Take DGNNEDNEX: the “A*1101 binding information” value with HLA-A*1101 (setting [1]) is on record as 0.0002.

Consider WSPCSVTCGK, for which the “A*1101 binding information” value in the assay with HLA-A*1101 (setting [3]) is given as 0.0002.

For SLYDEHRKY, in the assay with HLA-A*1101 (setting [3]), the “A*1101 binding information” value is 0.0045.

With IQNHTLETV, the DR4w4 binding data with DRB1*0401 (DR4w4) is -0.0007. The substance further came in with a DR3 binding data with DRB1*0301 (DR3) of -0.0041. The same substance came in with a DR7 binding data in the assay with DRB1*0701 (DR7) of -0.0003. The substance also had a DR1 binding data in the assay with DRB1*0101 (DR1) of 0.0001. For the same substance, in the assay with DRB1*0405 (DR4w15), the DR4w15 binding data was -0.0014. The same substance showed a DR5w12 binding data with DRB1*1201 (DR5w12) of 0.0001. The substance also came in with a DR8w2 binding data in the assay with DRB1*0802 (DR8w2) of -0.0003. In the assay with DRB1*1101 (DR5w11), this substance showed a DR5w11 binding data of -0.0002. In addition, the DR2w2β2 binding data with DRB5*0101 (DR2w2β2) was -0.0005.

On to YDNAGINLY, for which, in the assay with DRB1*0401 (DR4w4), the DR4w4 binding data was -0.0009. The DR7 binding data with DRB1*0701 (DR7) is listed as -0.0003. The same substance yielded a DR1 binding data in the assay with DRB1*0101 (DR1) of 0.0003. The same substance registered a DR4w15 binding data in the assay with DRB1*0405 (DR4w15) of -0.0009. For the same substance, the DR5w12 binding data with DRB1*1201 (DR5w12) is reported as 0.0001. For the same substance, in the assay with DRB1*0802 (DR8w2), the DR8w2 binding data is listed as -0.0003. The substance also came in with a DR5w11 binding data with DRB1*1101 (DR5w11) of -0.0002. In the assay with DRB5*0101 (DR2w2β2), this substance returned a DR2w2β2 binding data of -0.0005.

For the substance GLVLYNIEK, in the assay with HLA-A*1101 (setting [1]), the “A*1101 binding information” value is given as 0.0055.

In turn, LERTKASKE had a DR7 binding data with DRB1*0701 (DR7) of 0.0010. Moreover, the DR8w2 binding data with DRB1*0802 (DR8w2) is listed as -0.0003. This substance came in with a DRw53 binding data in the assay with DRB4*0101 (DRw53) of -0.0005.
